Assay results taken from US20230405133A1, “PURIFIED MULTIVALENT PROTEIN-HYALURONIC ACID POLYMER CONJUGATES” (Valitor, Inc., priority 2022, published 2023).
Values belong to the binder of their own block, whether it stands above or below them.

What was measured:
[1] = target: T1, Human VEGF 165 (human, UniProt P15692-4 27-191); experiment: BLI, VEGF 165 on probe; sample aged 3 days at 37 °C; aged 3 days at 37 C (sample 1)
T1 construct: Loaded on the BLI probe as the ligand; also called BLI ligand Human VEGF 165 (Avi tag, R&D Systems AVI-293-050); not shown: Avi tag

[2] = target: T1, Human VEGF 165; experiment: BLI, VEGF 165 on probe, conjugate as analyte, t = 0; t = 0, fresh conjugate, not aged
[3] = target: T1, Human VEGF 165; experiment: BLI; KD after 3 days at 37 °C against KD at t = 0; fold change of KD, 3 days at 37 C against t = 0
[4] = target: T1, Human VEGF 165; experiment: BLI, VEGF 165 on probe, conjugate as analyte, t = 0
Target sequence in this assay (P15692 other isoform, or with tags, fused parts or gaps limits assumed): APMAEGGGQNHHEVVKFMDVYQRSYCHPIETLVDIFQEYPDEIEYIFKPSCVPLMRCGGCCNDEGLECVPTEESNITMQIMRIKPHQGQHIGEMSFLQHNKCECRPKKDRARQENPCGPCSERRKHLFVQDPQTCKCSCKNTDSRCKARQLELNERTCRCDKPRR

[5] = target: T1, Human VEGF 165; experiment: BLI, VEGF 165 on probe, t = 0 (repeats Table 15)
[6] = target: T1, Human VEGF 165; experiment: BLI; KD after 3 days at 37 °C against KD at t = 0
[7] = target: T1, Human VEGF 165; experiment: BLI, VEGF 165 on probe; sample aged 3 days at 37 °C
[8] = target: T1, Human VEGF 165; experiment: BLI, VEGF 165 on probe; sample aged 5 days at 37 °C
[9] = target: T1, Human VEGF 165; experiment: BLI; KD after 5 days at 37 °C against KD at t = 0
[10] = target: T1, Human VEGF 165; experiment: BLI, VEGF 165 on probe; sample aged 32 days at 37 °C
Target sequence in this assay (P15692 other isoform, or with tags, fused parts or gaps limits assumed): as above

[11] = target: T1, Human VEGF 165; experiment: BLI, VEGF 165 on probe, t = 0 (repeats Table 15); limit of detection; t = 0, fresh conjugate, not aged
Target sequence in this assay (P15692 other isoform, or with tags, fused parts or gaps limits assumed): as above

[12] = target: T1, Human VEGF 165; experiment: BLI, VEGF 165 on probe; sample aged 11 days at 37 °C; limit of detection; aged 11 days at 37 C (sample 1)
Target sequence in this assay (P15692 other isoform, or with tags, fused parts or gaps limits assumed): as above

[13] = target: T1, Human VEGF 165; experiment: BLI; KD after 11 days at 37 °C against KD at t = 0
Target sequence in this assay (P15692 other isoform, or with tags, fused parts or gaps limits assumed): as above

[14] = target: T1, Human VEGF 165; experiment: BLI; KD after 32 days at 37 °C against KD at t = 0
Target sequence in this assay (P15692 other isoform, or with tags, fused parts or gaps limits assumed): as above

[15] = target: T1, Human VEGF 165; experiment: BLI, VEGF 165 on probe, conjugate as analyte, t = 0; value is the limit of detection
[16] = target: T1, Human VEGF 165; experiment: BLI, VEGF 165 on probe; sample aged 28 days at 37 °C
[17] = target: T1, Human VEGF 165; experiment: BLI, VEGF 165 on probe; sample aged 14 days at 37 °C; limit of detection
[18] = target: T1, Human VEGF 165; experiment: BLI, VEGF 165 on probe, t = 0 (repeats Table 15); limit of detection
[19] = target: T1, Human VEGF 165; experiment: BLI; KD after 28 days at 37 °C against KD at t = 0
[20] = target: T1, Human VEGF 165; experiment: BLI; KD after 14 days at 37 °C against KD at t = 0
[21] = target: T1, Human VEGF 165; experiment: BLI, VEGF binding affinity (KD, nM)
[22] = target: T1, Human VEGF 165; experiment: BLI, VEGF 165 on probe, conjugate as analyte

B3: Conjugate 11 (anti-VEGF E1-1 SEQ ID NO: 81 with aH linker SEQ ID NO: 21 on hyaluronic acid, intermediate 5-2) (VHH)
VHH: EVQLQASGGGFVQPGGSLRLSCAASGGGSDAGTMGWFRQAPGKEREFVSAISWAGTAWRYYADSVKGRFTISRDNSKNTVYLQMNSLRAEDTATYYCALGSYEMDHHYWGQGTQVTVSS
modifications: C-terminal Cys of the peptide linker bound by its thiol to the maleimide of the organic linker MP2H on hyaluronic acid (830 kDa)
notes: Multivalent peptide-hyaluronic acid conjugate (MVP); peptide valency 47; Method 5 intermediate
- Kd [5]: 1040 pM
- Change in KD to t = 0 [6]: 7 fold
- Kd [7]: 6760 pM
- Kd [4]: 1040 pM
- Kd [8]: 21900 pM
- Change in KD to t = 0 [9]: 21 fold

B6: Conjugate 2 (anti-VEGF DARPin SEQ ID NO: 92 on hyaluronic acid, intermediate 1-7) (designed binder)
chain: GSDLDKKLLEAARAGQDDEVRILMANGADVNARDSTGWTPLHLAAPWGHPEIVEVLLKNGADVNAADFQGWTPLHLAAAVGHLEIVEVLLKYGADVNAQDKFGKTAFDISIDNGNEDLAEILQKAAGGGSGGGS
modifications: peptide bound through the organic linker MP2H to hyaluronic acid (830 kDa); site of attachment not stated
notes: Multivalent peptide-hyaluronic acid conjugate (MVP); peptide valency 117; Method 1 intermediate; also called DARPin MVP (Method 1)
- Kd [16]: 17 pM
- Kd [17]: < 1 pM
- Kd [18]: < 1 pM
- Change in KD to t = 0 [19]: 17 fold
- Change in KD to t = 0 [20]: 1 fold
- Kd [15]: < 1 pM

B7: Conjugate 3 (anti-VEGF DARPin SEQ ID NO: 92 on hyaluronic acid, intermediate 5-5) (designed binder)
chain: B6 chain
modifications: peptide bound through the organic linker MP2H to hyaluronic acid (830 kDa); site of attachment not stated
notes: Multivalent peptide-hyaluronic acid conjugate (MVP); peptide valency 67; Method 5 intermediate; also called DARPin MVP (Method 5)
- Kd [15]: < 1 pM

B11: Conjugate 28 (N42 anti-VEGF VHH, HuNb42 A88P aH_CYS, SEQ ID NO: 145, on hyaluronic acid, Method B intermediate) (VHH)
VHH: QVQLVESGGGLVQPGGSLRLSCAASGFAYSTYSMGWFRQAPGKEREAVATINSGTFRLWYTDSVKGRFTISRDNSKNTLYLQMNSLRPEDTAVYYCAARAWSPYSSTVDAGDFRYWGQGTLVTVSS
modifications: C-terminal Cys bound by its thiol to the maleimide of the organic linker MP2H on hyaluronic acid (830 kDa)
notes: Multivalent peptide-hyaluronic acid conjugate; valency 129
- Kd [22]: 1.07 pM

Results, then the binder that gave them:

- Kd [1]: 557 pM
- Kd [2]: 184 pM
- Change in KD to t = 0 [3]: 3 fold
B1: Conjugate 8 (anti-VEGF E1-1 SEQ ID NO: 81 with aH linker SEQ ID NO: 21 on hyaluronic acid, intermediate 5-7) (VHH)
VHH: B3 VHH
modifications: C-terminal Cys of the peptide linker bound by its thiol to the maleimide of the organic linker MP2H on hyaluronic acid (830 kDa)
notes: Multivalent peptide-hyaluronic acid conjugate (MVP); peptide valency 94; Method 5 intermediate; also called anti-VEGF E1-1 MVP (Method 5)

- Kd [4]: 123 pM
B2: Conjugate 10 (anti-VEGF E1-1 SEQ ID NO: 81 with aH linker SEQ ID NO: 21 on hyaluronic acid, intermediate 2-4) (VHH)
VHH: B3 VHH
modifications: C-terminal Cys of the peptide linker bound by its thiol to the maleimide of the organic linker MP2H on hyaluronic acid (830 kDa)
notes: Multivalent peptide-hyaluronic acid conjugate (MVP); peptide valency 136; Method 2 intermediate; also called anti-VEGF E1-1 MVP (Method 2)

- Kd [4]: 678 pM
B4: Conjugate 9 (anti-VEGF E1-1 SEQ ID NO: 81 with aH linker SEQ ID NO: 21 on hyaluronic acid, intermediate 5-9) (VHH)
VHH: B3 VHH
modifications: C-terminal Cys of the peptide linker bound by its thiol to the maleimide of the organic linker MP2H on hyaluronic acid (830 kDa)
notes: Multivalent peptide-hyaluronic acid conjugate (MVP); peptide valency 51; Method 5 intermediate

- Kd [10]: 75 pM
- Kd [11]: < 1 pM
- Kd [12]: < 1 pM
- Change in KD to t = 0 [13]: 1 fold
- Change in KD to t = 0 [14]: 75 fold
- Kd [15]: < 1 pM
B5: Conjugate 1 (anti-VEGF DARPin SEQ ID NO: 92 on hyaluronic acid, intermediate 5-4) (designed binder)
chain: B6 chain
modifications: peptide bound through the organic linker MP2H to hyaluronic acid (830 kDa); site of attachment not stated
notes: Multivalent peptide-hyaluronic acid conjugate (MVP); peptide valency 68; Method 5 intermediate (high EDC, N-acylurea adducts); also called DARPin MVP (Method 5)

- binding result [21]: binds
B8: 2H10_5MUT_aH_CYS (unconjugated) (VHH)
VHH: QVQLVESGGGLVQPGGSLRLSCLASGRRFSIEAMGWYRQAPGKQRELVAIIDSGGSTDYVDSAKGRFTISRDNSKNTVYLQMNSLRAEDTAVYYCNVIGSSWYGRGLDYWGQGTLVTVSS
notes: Free peptide, not conjugated to hyaluronic acid

- binding result [21]: binds
B9: 2H10_5MUT_aH_CYS MVP [140.3] (VHH)
VHH: B8 VHH
modifications: C-terminal Cys is the conjugation site
notes: Multivalent protein-hyaluronic acid conjugate

- binding result [21]: binds
B10: HuNb42_A88P_aH_CYS (unconjugated) (VHH)
VHH: B11 VHH
notes: as for B8
